In article doi:10.1101/2022.12.01.518327 (bioRxiv, 2022):
Residue numbers refer to the chain shown, from its start. Names may count otherwise.

Tests used:
[1] = target: T1, mouse LEP-R extracellular domain (mLEP-RECD) (mouse, UniProt P48356 22-839); assay: SEC-MALLS + AUC
T1 sequence (looked up): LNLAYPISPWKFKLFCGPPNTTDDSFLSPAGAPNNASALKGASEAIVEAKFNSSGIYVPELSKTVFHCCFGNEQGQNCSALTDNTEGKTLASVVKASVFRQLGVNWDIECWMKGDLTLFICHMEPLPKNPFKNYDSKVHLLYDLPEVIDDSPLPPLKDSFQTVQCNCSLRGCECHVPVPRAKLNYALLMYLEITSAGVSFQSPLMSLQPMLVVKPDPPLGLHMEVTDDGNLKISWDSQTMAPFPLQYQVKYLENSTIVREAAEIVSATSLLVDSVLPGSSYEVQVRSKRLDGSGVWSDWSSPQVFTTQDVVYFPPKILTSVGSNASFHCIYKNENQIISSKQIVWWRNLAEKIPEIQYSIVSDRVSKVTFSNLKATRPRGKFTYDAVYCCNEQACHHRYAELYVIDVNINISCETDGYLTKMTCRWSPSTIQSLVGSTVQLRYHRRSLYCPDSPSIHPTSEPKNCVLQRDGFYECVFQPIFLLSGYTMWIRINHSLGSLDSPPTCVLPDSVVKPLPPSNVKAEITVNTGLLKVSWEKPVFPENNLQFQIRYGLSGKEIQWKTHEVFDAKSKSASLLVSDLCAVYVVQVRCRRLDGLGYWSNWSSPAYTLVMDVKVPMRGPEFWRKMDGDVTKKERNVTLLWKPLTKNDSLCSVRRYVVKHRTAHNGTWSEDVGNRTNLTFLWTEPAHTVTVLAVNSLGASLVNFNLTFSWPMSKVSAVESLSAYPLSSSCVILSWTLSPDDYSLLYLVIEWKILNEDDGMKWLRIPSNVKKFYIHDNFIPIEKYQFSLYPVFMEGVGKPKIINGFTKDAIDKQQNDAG

[2] = target: T2, mouse LEP-R Ig-CRH2 fragment, residues 328-633, C602S (mouse, UniProt P48356 328-633, C602S); assay: SEC-MALLS
T2 sequence (looked up): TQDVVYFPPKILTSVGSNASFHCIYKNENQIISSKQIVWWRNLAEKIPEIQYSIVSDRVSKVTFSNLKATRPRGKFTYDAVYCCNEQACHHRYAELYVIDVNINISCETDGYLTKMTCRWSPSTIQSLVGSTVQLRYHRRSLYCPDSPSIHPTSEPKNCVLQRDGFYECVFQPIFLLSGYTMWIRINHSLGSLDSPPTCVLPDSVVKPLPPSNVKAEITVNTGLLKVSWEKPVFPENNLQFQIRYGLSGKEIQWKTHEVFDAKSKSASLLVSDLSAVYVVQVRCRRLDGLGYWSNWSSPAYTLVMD

[3] = target: T3, human LEP-R extracellular domain (hLEP-RECD), glycosylated (human, UniProt P48357 22-839); assay: SEC-MALLS
T3 sequence (looked up): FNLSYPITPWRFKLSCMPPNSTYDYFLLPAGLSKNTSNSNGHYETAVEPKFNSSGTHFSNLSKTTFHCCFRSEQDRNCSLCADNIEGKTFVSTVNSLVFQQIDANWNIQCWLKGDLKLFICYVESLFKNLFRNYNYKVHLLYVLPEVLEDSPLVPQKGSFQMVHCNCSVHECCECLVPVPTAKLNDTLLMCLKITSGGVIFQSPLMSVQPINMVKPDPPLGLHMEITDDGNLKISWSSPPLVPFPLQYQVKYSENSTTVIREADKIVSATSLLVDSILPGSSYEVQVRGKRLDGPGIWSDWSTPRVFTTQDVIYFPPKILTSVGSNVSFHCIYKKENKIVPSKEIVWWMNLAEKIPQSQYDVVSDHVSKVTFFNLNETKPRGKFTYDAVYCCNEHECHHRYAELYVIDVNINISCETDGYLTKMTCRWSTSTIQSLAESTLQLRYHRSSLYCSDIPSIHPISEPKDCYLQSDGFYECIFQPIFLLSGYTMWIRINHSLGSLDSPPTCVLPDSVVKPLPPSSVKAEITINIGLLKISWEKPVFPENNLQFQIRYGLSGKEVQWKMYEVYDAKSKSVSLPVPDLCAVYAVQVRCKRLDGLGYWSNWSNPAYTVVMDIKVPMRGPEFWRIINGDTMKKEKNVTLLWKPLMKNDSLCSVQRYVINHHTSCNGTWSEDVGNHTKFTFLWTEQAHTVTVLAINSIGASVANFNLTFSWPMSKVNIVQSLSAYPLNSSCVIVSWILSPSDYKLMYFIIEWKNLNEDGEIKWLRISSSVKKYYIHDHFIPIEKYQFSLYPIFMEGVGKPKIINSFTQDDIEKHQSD

[4] = target: T1, mouse LEP-R extracellular domain …; assay: cryo-EM structure
[5] = target: T1, mouse LEP-R extracellular domain …; assay: BLI
[6] = target: T2, mouse LEP-R Ig-CRH2 fragment, residues …; assay: crystal structure
[7] = target: T1, mouse LEP-R extracellular domain …; assay: SEC-MALLS

B1: mouse Leptin (mLeptin), wild type, as used in SEC-MALLS, AUC, BLI (in solution) and on cells (ligand, UniProt P41160 22-167, looked up)
chain: VPIQKVQDDTKTLIKTIVTRINDISHTQSVSAKQRVTGLDFIPGLHPILSLSKMDQTLAVYQQVLTSLPSQNVLQIANDLENLRDLLHLLAFSKSCSLPQTSGLQKPESLDGVLEASLYSTEVVALSRLQGSLQDILQQLDVSPEC
binding result [1]: binds
binding result [2]: binds
binding result [3]: binds

B2: mouse Leptin refolded from E. coli, N-terminal His-tag removed with TEV protease (ligand, UniProt P41160 22-167, looked up)
chain: B1 chain
binding result [4]: binds

B3: in vitro biotinylated mouse Leptin (ligand, UniProt P41160 22-167, looked up)
chain: B1 chain
modifications: biotin (NHS-PEG4-biotin, in vitro)
binding result [5]: binds

B4: tag-less mouse Leptin refolded from E. coli inclusion bodies (ligand, UniProt P41160 22-167, looked up)
chain: B1 chain
binding result [6]: binds

B5: Leptin a1 antagonist (141ST142/AA), as used with mLEP-RECD (ligand, UniProt P41160 22-167, looked up)
chain: B1 chain with S120A, T121A
stoichiometry N [1]: 1

B6: mouse Leptin a2 antagonist (60LDFI63/AAAA) (ligand, UniProt P41160 22-167, looked up)
chain: B1 chain with L39A, D40A, F41A, I42A
stoichiometry N [1]: 1

B7: murinized human Leptin I85V/M89L/G132D/G139L (ligand, UniProt P41159 22-167, looked up)
chain: VPIQKVQDDTKTLIKTIVTRINDISHTQSVSSKQKVTGLDFIPGLHPILTLSKMDQTLAVYQQVLTSLPSRNVIQISNDLENLRDLLHVLAFSKSCHLPWASGLETLDSLDGVLEASLYSTEVVALSRLQGSLQDMLWQLDLSPGC
binding result [7]: binds
